The results in this text go back to article PMC11811190, “Cryo-EM structures of the BAF-Lamin A/C complex bound to nucleosomes” (Nature Communications, 2025).

Data set [1] has as its target T1, Lamin A/C IgF domain (411-566) (human, UniProt P02545 411-566).
T1 construct: Lamin A/C, human, residues 411-566 (IgF domain); MBP cut on-column with TEV protease; also called Lamin A/C (411-566); Ig-fold domain of Lamin A/C; source: E. coli Rosetta 2 (DE3), purified (amylose resin, Superdex 75); not shown: MBP, N-terminal, cleaved
T1 sequence (looked up): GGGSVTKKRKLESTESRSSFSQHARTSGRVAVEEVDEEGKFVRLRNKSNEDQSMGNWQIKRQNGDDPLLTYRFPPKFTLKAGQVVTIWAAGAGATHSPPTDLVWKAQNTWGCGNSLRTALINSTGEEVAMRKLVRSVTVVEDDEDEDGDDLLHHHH
Description: cryo-EM structure; BAF-Lamin A/C IgF-nucleosome complex, high gel mobility (fraction 1); BAF 3-fold, Lamin A/C IgF 6-fold over 0.93 uM nucleosome (193 bp DNA), 30 min 30 °C, GraFix with glutaraldehyde; 3.82 Å. As to conditions: both partners purified.

Data set [2] concerns the molecule itself. Described as above.

B1: Barrier-to-autointegration factor (BAF) (natural protein, human, UniProt O75531 1-89, looked up)
chain: MTTSQKHRDFVAEPMGEKPVGSLAGIGEVLGKKLEERGFDKAYVVLGQFLVLKKDEDLFREWLKDTCGANAKQSRDCFGCLREWCDAFL
notes: Barrier-to-autointegration factor (BAF), human, full length; His tag cut with thrombin; also called human BAF; full-length BAF; not shown: His6, N-terminal, cleaved
For B1, the binding result in data set [1] and in data set [2] was “binds” in each case.
